Results: publication PMC9482650, “Quantitative fragmentomics allow affinity mapping of interactomes” (Nature Communications, 2022)

How the values were obtained:
Test in all cases: holdup assay
Design in all cases: key: below the threshold = too weak to quantify, mostly under pKd 3.1 to 4
CARD11, Q9BXL7 = biological target: T1, CARD11, Q9BXL7
T1 sequence (Q9BXL7 662-765, limits assumed, looked up): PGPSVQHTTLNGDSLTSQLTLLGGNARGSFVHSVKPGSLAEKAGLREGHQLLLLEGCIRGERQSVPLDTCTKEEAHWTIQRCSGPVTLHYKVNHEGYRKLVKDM

NHERF2_2, Q15599 = biological target: NHERF2_2, Q15599
NHERF2_2, Q15599, sequence (Q15599 142-238): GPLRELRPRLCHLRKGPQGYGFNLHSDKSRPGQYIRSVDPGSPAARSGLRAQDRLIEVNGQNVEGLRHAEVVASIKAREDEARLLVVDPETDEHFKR

RAPGEF6, Q8TEU7 = biological target: T2, RAPGEF6, Q8TEU7
T2 sequence (Q8TEU7 525-625, limits assumed, looked up): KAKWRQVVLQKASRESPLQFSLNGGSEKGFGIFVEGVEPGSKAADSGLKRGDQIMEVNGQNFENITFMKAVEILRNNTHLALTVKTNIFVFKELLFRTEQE

DLG2_2, Q15700 = biological target: DLG2_2, Q15700
DLG2_2, Q15700, sequence (Q15700 189-283): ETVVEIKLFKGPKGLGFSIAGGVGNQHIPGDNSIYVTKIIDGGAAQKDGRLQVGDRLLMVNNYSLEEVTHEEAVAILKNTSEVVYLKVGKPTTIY

Inadl_2, Q8NI35 = biological target: Inadl_2, Q8NI35
Inadl_2, Q8NI35, sequence (Q8NI35 238-335): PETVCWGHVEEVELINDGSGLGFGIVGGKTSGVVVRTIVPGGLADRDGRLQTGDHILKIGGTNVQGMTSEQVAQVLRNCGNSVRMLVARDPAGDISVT

GRIP1_3, Q9Y3R0 = biological target: T3, GRIP1_3, Q9Y3R0
T3 sequence (Q9Y3R0 247-346, limits assumed, looked up): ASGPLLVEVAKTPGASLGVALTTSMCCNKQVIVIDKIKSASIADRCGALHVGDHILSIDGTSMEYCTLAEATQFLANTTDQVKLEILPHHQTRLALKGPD

NHERF3_3, Q5T2W1 = biological target: T4, NHERF3_3, Q5T2W1
T4 sequence (Q5T2W1 238-333, limits assumed, looked up): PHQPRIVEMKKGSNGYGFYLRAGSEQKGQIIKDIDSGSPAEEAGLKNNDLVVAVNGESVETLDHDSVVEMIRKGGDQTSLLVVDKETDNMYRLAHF

MAGI3_2, Q5TCQ9 = biological target: MAGI3_2, Q5TCQ9
MAGI3_2, Q5TCQ9, sequence (Q5TCQ9 398-503): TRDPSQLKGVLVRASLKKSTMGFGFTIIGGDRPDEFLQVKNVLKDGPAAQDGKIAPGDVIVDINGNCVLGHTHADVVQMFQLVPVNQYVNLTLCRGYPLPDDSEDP

PARD3_3, Q8TEW0 = biological target: PARD3_3, Q8TEW0
PARD3_3, Q8TEW0, sequence (Q8TEW0 582-685): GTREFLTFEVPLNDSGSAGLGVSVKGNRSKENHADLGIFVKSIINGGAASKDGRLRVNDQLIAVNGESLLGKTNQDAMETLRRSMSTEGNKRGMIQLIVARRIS

GRID2IP_1, A4D2P6 = biological target: GRID2IP_1, A4D2P6
GRID2IP_1, A4D2P6, sequence (A4D2P6 1-87): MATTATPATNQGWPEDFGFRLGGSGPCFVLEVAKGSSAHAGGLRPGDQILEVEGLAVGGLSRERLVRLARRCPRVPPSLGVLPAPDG

Inadl_6, Q8NI35 = biological target: Inadl_6, Q8NI35
Inadl_6, Q8NI35, sequence (Q8NI35 1058-1167): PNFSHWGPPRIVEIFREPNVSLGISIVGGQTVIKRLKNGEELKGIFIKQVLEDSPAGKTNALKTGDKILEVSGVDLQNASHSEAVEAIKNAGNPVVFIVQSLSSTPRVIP

GRIP2_4, Q9C0E4 = biological target: GRIP2_4, Q9C0E4
GRIP2_4, Q9C0E4, sequence (Q9C0E4 446-548): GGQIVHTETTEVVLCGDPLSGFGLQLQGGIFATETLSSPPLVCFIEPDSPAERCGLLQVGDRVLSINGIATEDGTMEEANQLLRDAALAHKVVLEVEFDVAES

APBA3_1, O96018 = biological target: T5, APBA3_1, O96018
T5 sequence (O96018 389-490, limits assumed, looked up): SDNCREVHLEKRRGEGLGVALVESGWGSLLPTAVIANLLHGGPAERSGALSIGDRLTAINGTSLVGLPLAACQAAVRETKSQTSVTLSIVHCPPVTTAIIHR

HTRA1, Q92743 = biological target: HTRA1, Q92743
HTRA1, Q92743, sequence (Q92743 360-477): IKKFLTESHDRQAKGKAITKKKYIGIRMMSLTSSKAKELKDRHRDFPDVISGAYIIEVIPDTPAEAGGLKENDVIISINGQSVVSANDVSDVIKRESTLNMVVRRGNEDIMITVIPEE

HTRA4, P83105 = biological target: T6, HTRA4, P83105
T6 sequence (P83105 378-476, limits assumed, looked up): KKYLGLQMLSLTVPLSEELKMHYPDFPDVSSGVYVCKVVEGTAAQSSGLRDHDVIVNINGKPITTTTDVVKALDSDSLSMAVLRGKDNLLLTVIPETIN

MAGI2_5, Q86UL8 = biological target: MAGI2_5, Q86UL8
MAGI2_5, Q86UL8, sequence (Q86UL8 915-1017): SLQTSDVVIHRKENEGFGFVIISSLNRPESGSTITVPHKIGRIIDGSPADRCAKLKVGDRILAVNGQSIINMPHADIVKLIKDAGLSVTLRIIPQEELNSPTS

MAGI2_2, Q86UL8 = biological target: MAGI2_2, Q86UL8
MAGI2_2, Q86UL8, sequence (Q86UL8 410-522): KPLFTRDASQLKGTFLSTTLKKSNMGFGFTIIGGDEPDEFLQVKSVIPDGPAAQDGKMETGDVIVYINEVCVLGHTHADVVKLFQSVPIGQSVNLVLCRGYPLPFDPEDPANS

SNX27, Q96L92 = biological target: SNX27, Q96L92
SHANK1, Q9Y566 = biological target: T7, SHANK1, Q9Y566
T7 sequence (Q9Y566 658-767, limits assumed, looked up): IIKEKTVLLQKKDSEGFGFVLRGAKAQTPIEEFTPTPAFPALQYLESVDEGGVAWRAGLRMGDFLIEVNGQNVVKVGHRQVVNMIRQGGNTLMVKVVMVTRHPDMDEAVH

NHERF4_4, Q86UT5 = biological target: NHERF4_4, Q86UT5
NHERF4_4, Q86UT5, sequence (Q86UT5 464-550): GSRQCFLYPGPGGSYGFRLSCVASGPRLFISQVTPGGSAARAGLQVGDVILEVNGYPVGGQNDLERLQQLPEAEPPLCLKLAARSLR

LIN7C, Q9NUP9 = biological target: T8, LIN7C, Q9NUP9
T8 sequence (Q9NUP9 88-185, limits assumed, looked up): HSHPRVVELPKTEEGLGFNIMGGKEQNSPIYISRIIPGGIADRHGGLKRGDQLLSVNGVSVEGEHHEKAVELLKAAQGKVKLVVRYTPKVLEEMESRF

DFNB31_1, Q9P202 = biological target: T9, DFNB31_1, Q9P202
T9 sequence (Q9P202 135-233, limits assumed, looked up): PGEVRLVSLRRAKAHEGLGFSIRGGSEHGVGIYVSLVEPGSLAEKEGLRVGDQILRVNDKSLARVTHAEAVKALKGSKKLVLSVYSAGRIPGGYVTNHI

DLG4_1, P78352 = biological target: DLG4_1, P78352
DLG4_1, P78352, sequence (P78352 62-152): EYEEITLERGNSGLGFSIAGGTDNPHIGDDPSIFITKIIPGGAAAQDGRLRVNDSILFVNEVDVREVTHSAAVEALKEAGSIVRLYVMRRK

GRIP2_7, Q9C0E4 = biological target: GRIP2_7, Q9C0E4
GRIP2_7, Q9C0E4, sequence (Q9C0E4 934-1023): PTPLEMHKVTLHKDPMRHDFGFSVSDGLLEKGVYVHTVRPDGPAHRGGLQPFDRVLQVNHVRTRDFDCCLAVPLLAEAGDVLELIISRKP

LIMK2, P53671 = biological target: LIMK2, P53671
LIMK2, P53671, sequence (P53671 143-248): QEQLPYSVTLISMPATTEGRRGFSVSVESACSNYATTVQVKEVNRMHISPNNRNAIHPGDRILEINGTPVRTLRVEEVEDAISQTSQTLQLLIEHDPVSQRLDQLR

FRMPD2_2, Q68DX3 = biological target: FRMPD2_2, Q68DX3
FRMPD2_2, Q68DX3, sequence (Q68DX3 944-1038): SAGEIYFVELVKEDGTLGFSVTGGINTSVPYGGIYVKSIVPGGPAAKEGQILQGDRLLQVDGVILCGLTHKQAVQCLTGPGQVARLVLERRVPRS

LDB3, O75112 = biological target: LDB3, O75112
LDB3, O75112, sequence (O75112 1-94): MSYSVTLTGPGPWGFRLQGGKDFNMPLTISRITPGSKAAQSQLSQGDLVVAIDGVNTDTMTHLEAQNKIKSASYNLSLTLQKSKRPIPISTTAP

GRASP, Q7Z6J2 = biological target: GRASP, Q7Z6J2
GRASP, Q7Z6J2, sequence (Q7Z6J2 96-193): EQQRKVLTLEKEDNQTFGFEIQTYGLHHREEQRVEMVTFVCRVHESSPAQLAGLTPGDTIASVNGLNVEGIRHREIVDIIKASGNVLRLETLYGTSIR

[1] = plain residues with an end cap or a label only (N-terminal biotin on a linker: ado-ado)
[2] = modified: phospho on T at position -2 from the C-terminal residue

Measured: pKd

RQKEVRESKC [SCN8A, Q9UQD0]
3.84: LIN7C, Q9NUP9; [1]
4.02: MAGI2_2, Q86UL8; [1]
below the threshold: CARD11, Q9BXL7; [1] | RAPGEF6, Q8TEU7; [1] | DLG2_2, Q15700; [1] | Inadl_2, Q8NI35; [1] | GRIP1_3, Q9Y3R0; [1] | NHERF3_3, Q5T2W1; [1] | PARD3_3, Q8TEW0; [1] | GRID2IP_1, A4D2P6; [1] | Inadl_6, Q8NI35; [1] | GRIP2_4, Q9C0E4; [1] | APBA3_1, O96018; [1] | HTRA1, Q92743; [1] | HTRA4, P83105; [1] | SHANK1, Q9Y566; [1] | NHERF4_4, Q86UT5; [1] | DLG4_1, P78352; [1] | GRIP2_7, Q9C0E4; [1] | LIMK2, P53671; [1] | FRMPD2_2, Q68DX3; [1] | LDB3, O75112; [1] | GRASP, Q7Z6J2; [1]
3.57: NHERF2_2, Q15599; [1]
3.61: MAGI2_5, Q86UL8; [1]
5.19: SNX27, Q96L92; [1]
4.01: MAGI3_2, Q5TCQ9; [1]
4.1: DFNB31_1, Q9P202; [1]

SSRTRRETQL [HPV16-E6_-2P, P03126]
3.94: LIN7C, Q9NUP9; [2]
below the threshold: CARD11, Q9BXL7; [2] | NHERF2_2, Q15599; [2] | RAPGEF6, Q8TEU7; [2] | DLG2_2, Q15700; [2] | Inadl_2, Q8NI35; [2] | GRIP1_3, Q9Y3R0; [2] | NHERF3_3, Q5T2W1; [2] | MAGI3_2, Q5TCQ9; [2] | PARD3_3, Q8TEW0; [2] | GRID2IP_1, A4D2P6; [2] | Inadl_6, Q8NI35; [2] | GRIP2_4, Q9C0E4; [2] | APBA3_1, O96018; [2] | HTRA1, Q92743; [2] | HTRA4, P83105; [2] | MAGI2_5, Q86UL8; [2] | MAGI2_2, Q86UL8; [2] | SNX27, Q96L92; [2] | SHANK1, Q9Y566; [2] | NHERF4_4, Q86UT5; [2] | DFNB31_1, Q9P202; [2] | DLG4_1, P78352; [2] | GRIP2_7, Q9C0E4; [2] | LIMK2, P53671; [2] | FRMPD2_2, Q68DX3; [2] | LDB3, O75112; [2] | GRASP, Q7Z6J2; [2]

EDGESWEYQI [TRPV6, Q9H1D0]
3.67: NHERF2_2, Q15599; [1]
below the threshold: CARD11, Q9BXL7; [1] | RAPGEF6, Q8TEU7; [1] | DLG2_2, Q15700; [1] | GRIP1_3, Q9Y3R0; [1] | NHERF3_3, Q5T2W1; [1] | MAGI3_2, Q5TCQ9; [1] | GRID2IP_1, A4D2P6; [1] | Inadl_6, Q8NI35; [1] | GRIP2_4, Q9C0E4; [1] | APBA3_1, O96018; [1] | HTRA4, P83105; [1] | MAGI2_5, Q86UL8; [1] | MAGI2_2, Q86UL8; [1] | SNX27, Q96L92; [1] | SHANK1, Q9Y566; [1] | DFNB31_1, Q9P202; [1] | DLG4_1, P78352; [1] | LIMK2, P53671; [1] | FRMPD2_2, Q68DX3; [1] | LDB3, O75112; [1] | GRASP, Q7Z6J2; [1]
4.45: HTRA1, Q92743; [1]
3.97: Inadl_2, Q8NI35; [1]
3.94: NHERF4_4, Q86UT5; [1]
3.72: LIN7C, Q9NUP9; [1]
5.35: PARD3_3, Q8TEW0; [1]
3.61: GRIP2_7, Q9C0E4; [1]

AQRARSPSDV [GPR12, P47775]
3.49: DLG2_2, Q15700; [1]
below the threshold: CARD11, Q9BXL7; [1] | NHERF2_2, Q15599; [1] | RAPGEF6, Q8TEU7; [1] | Inadl_2, Q8NI35; [1] | GRIP1_3, Q9Y3R0; [1] | NHERF3_3, Q5T2W1; [1] | PARD3_3, Q8TEW0; [1] | GRID2IP_1, A4D2P6; [1] | Inadl_6, Q8NI35; [1] | GRIP2_4, Q9C0E4; [1] | APBA3_1, O96018; [1] | HTRA1, Q92743; [1] | HTRA4, P83105; [1] | MAGI2_5, Q86UL8; [1] | SNX27, Q96L92; [1] | SHANK1, Q9Y566; [1] | NHERF4_4, Q86UT5; [1] | LIN7C, Q9NUP9; [1] | DFNB31_1, Q9P202; [1] | DLG4_1, P78352; [1] | GRIP2_7, Q9C0E4; [1] | LIMK2, P53671; [1] | FRMPD2_2, Q68DX3; [1] | LDB3, O75112; [1] | GRASP, Q7Z6J2; [1]
3.5: MAGI3_2, Q5TCQ9; [1]
3.65: MAGI2_2, Q86UL8; [1]

PYSESDDDWC [CACNA1A, O00555]
4.09: SNX27, Q96L92; [1]
3.89: PARD3_3, Q8TEW0; [1]
4.53: HTRA1, Q92743; [1]
3.74: NHERF2_2, Q15599; [1]
below the threshold: CARD11, Q9BXL7; [1] | RAPGEF6, Q8TEU7; [1] | DLG2_2, Q15700; [1] | Inadl_2, Q8NI35; [1] | GRIP1_3, Q9Y3R0; [1] | NHERF3_3, Q5T2W1; [1] | MAGI3_2, Q5TCQ9; [1] | GRID2IP_1, A4D2P6; [1] | Inadl_6, Q8NI35; [1] | GRIP2_4, Q9C0E4; [1] | APBA3_1, O96018; [1] | HTRA4, P83105; [1] | MAGI2_5, Q86UL8; [1] | MAGI2_2, Q86UL8; [1] | SHANK1, Q9Y566; [1] | NHERF4_4, Q86UT5; [1] | LIN7C, Q9NUP9; [1] | DFNB31_1, Q9P202; [1] | DLG4_1, P78352; [1] | GRIP2_7, Q9C0E4; [1] | LIMK2, P53671; [1] | FRMPD2_2, Q68DX3; [1] | LDB3, O75112; [1] | GRASP, Q7Z6J2; [1]
